Measurements reported in paper PMC3961674, “Novel Ubiquitin-derived High Affinity Binding Proteins with Tumor Targeting Properties*” (The Journal of Biological Chemistry, 2014).

Target: 77405-MSA (77405 fused to mouse serum albumin) (human | mouse, UniProt P0CG48 1-76; P0CG48 1-76, Gln-2 to Arg | Phe-4 to Trp | Lys-6 to His | Gln-62 to Asn | Lys-63 to Pro | …)
Assay: ELISA; 67B89 target or 6789 off-target coated on Medisorp 96-well plates; variant in serial dilutions, 1 h; detection with anti-Ubi-Fab-POD; apparent KD by hyperbolic fit
Conditions: both partners purified

B1: 67B89 (ED-B domain of fibronectin flanked by its N-terminal domains 6 and 7 and C-terminal domains 8 and 9) (domain or fragment)
chain: not shown
notes: fibronectin, UniProt P02751 isoform 7, residues 1080-1541 (domains 6, 7, ED-B, 8, 9); numbers count on: isoform 7; tag-free, from pET28a; gene synthesis; also called 67B89 target; ED-B target; source: E. coli HMS174 (DE3), purified (Q-Sepharose FF, ammonium sulfate precipitation, Phenyl HP, Q Sepharose HP)
Kd: 0.58 nM
